In patent US6084068, “Elongin A and C functional domains” (Oklahoma Medical Research Foundation, dated 2000):
Residue numbers refer to the chain shown, from its start. Names may count otherwise.

T1: Elongin BC complex (wild type rat Elongin B and C) (rat, UniProt P62870)
T1 chain 1: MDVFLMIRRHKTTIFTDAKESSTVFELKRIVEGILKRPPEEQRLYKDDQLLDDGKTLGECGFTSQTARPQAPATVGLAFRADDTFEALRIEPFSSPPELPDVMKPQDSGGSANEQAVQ
T1 chain 2: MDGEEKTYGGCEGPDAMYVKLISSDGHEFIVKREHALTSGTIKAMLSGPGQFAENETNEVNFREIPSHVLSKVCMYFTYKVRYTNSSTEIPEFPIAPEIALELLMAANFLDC

B1: Elongin A internal deletion mutant Δ561-564 (other)
chain: MAAESALQVVEKLQARLAANPDPKKLLKYLKKLSVLPITVDILVETGVGKTVNSFRKHEQVGNFARDLVAQWKKLVPVERNNEAEDQDFEKSNSRKRPRDVPQQEEEAEGNYQESWQASGSQPYSPEHRQKKHRKLPELERPHKVAHGHERRDERKRCHKVSPPYSSDPESSDYGHVQSPPPSSPHQMYTDLSRSPEMDQEPIVSHPKPGKVHSNTFQDRLGVSHLGEHQGKGAVSQNKPHKSSHKEKRPVDARGDEKSSVMGREKSHKASSKEESRRLLSEDSAKEKLPSSVVKKEKDREGNSLKKKLSPALDVASDNHFKKPKHKDSEKIKSDKNKQSVDSVDSGRGTGDPLPRAKDKVPNNLKAQEGKVRTNSDRKSPGSLPKVEEMDMDDEFEQPTMSFESYLSYDQPRKKKKKVVKTSGTALGEKGLKKKDSKSTSKNLNSAQKLPKANENKSDKLQPAGAEPTRPRKVPTDVLPALPDIPLPAIQTNYRPLPSLELISSFQPKRKAFSSPQEEEEAGFTGRRMNSKMQVYSGSKCAYLPKMMTLHQQCIRVLKNIFEVGGVPYSVLEPVLERCTPDQLYRIEECNHVLIEETDQLWKVHCHRDFKEERPEEYESWREMYLRLQDAREQRLRLLTNNIRSAHANKPKGRQAKMAFVNSVAKPPRDVRRRQEKFGTGGAAVPEKVRIKPAPYTTGSSHVPASNSSSSFHSSPEELAYEGPSTSSAHLAPVASSSVSYDPRKPAVKKIAPMMAKTIKAFKNRFSRR
B2: Elongin A internal deletion mutant Δ565-568 (other)
chain: B1 chain with I561N, F562I, E563D, V564S
B3: Elongin A deletion mutant 1-730 (other)
chain: MAAESALQVVEKLQARLAANPDPKKLLKYLKKLSVLPITVDILVETGVGKTVNSFRKHEQVGNFARDLVAQWKKLVPVERNNEAEDQDFEKSNSRKRPRDVPQQEEEAEGNYQESWQASGSQPYSPEHRQKKHRKLPELERPHKVAHGHERRDERKRCHKVSPPYSSDPESSDYGHVQSPPPSSPHQMYTDLSRSPEMDQEPIVSHPKPGKVHSNTFQDRLGVSHLGEHQGKGAVSQNKPHKSSHKEKRPVDARGDEKSSVMGREKSHKASSKEESRRLLSEDSAKEKLPSSVVKKEKDREGNSLKKKLSPALDVASDNHFKKPKHKDSEKIKSDKNKQSVDSVDSGRGTGDPLPRAKDKVPNNLKAQEGKVRTNSDRKSPGSLPKVEEMDMDDEFEQPTMSFESYLSYDQPRKKKKKVVKTSGTALGEKGLKKKDSKSTSKNLNSAQKLPKANENKSDKLQPAGAEPTRPRKVPTDVLPALPDIPLPAIQTNYRPLPSLELISSFQPKRKAFSSPQEEEEAGFTGRRMNSKMQVYSGSKCAYLPKMMTLHQQCIRVLKNNIDSIFEVGGVPYSVLEPVLERCTPDQLYRIEECNHVLIEETDQLWKVHCHRDFKEERPEEYESWREMYLRLQDAREQRLRLLTNNIRSAHANKPKGRQAKMAFVNSVAKPPRDVRRRQEKFGTGGAAVPEKVRIKPAPYTTGSSHVPASNSSSSFHSSPEELAYEGPST
B4: Elongin A internal deletion mutant Δ401-440 (other)
chain: MAAESALQVVEKLQARLAANPDPKKLLKYLKKLSVLPITVDILVETGVGKTVNSFRKHEQVGNFARDLVAQWKKLVPVERNNEAEDQDFEKSNSRKRPRDVPQQEEEAEGNYQESWQASGSQPYSPEHRQKKHRKLPELERPHKVAHGHERRDERKRCHKVSPPYSSDPESSDYGHVQSPPPSSPHQMYTDLSRSPEMDQEPIVSHPKPGKVHSNTFQDRLGVSHLGEHQGKGAVSQNKPHKSSHKEKRPVDARGDEKSSVMGREKSHKASSKEESRRLLSEDSAKEKLPSSVVKKEKDREGNSLKKKLSPALDVASDNHFKKPKHKDSEKIKSDKNKQSVDSVDSGRGTGDPLPRAKDKVPNNLKAQEGKVRTNSDRKSPGSLPKVEEMDMDDEFEQPTSKNLNSAQKLPKANENKSDKLQPAGAEPTRPRKVPTDVLPALPDIPLPAIQTNYRPLPSLELISSFQPKRKAFSSPQEEEEAGFTGRRMNSKMQVYSGSKCAYLPKMMTLHQQCIRVLKNNIDSIFEVGGVPYSVLEPVLERCTPDQLYRIEECNHVLIEETDQLWKVHCHRDFKEERPEEYESWREMYLRLQDAREQRLRLLTNNIRSAHANKPKGRQAKMAFVNSVAKPPRDVRRRQEKFGTGGAAVPEKVRIKPAPYTTGSSHVPASNSSSSFHSSPEELAYEGPSTSSAHLAPVASSSVSYDPRKPAVKKIAPMMAKTIKAFKNRFSRR
B5: Elongin A deletion mutant 1-630 (other)
chain: MAAESALQVVEKLQARLAANPDPKKLLKYLKKLSVLPITVDILVETGVGKTVNSFRKHEQVGNFARDLVAQWKKLVPVERNNEAEDQDFEKSNSRKRPRDVPQQEEEAEGNYQESWQASGSQPYSPEHRQKKHRKLPELERPHKVAHGHERRDERKRCHKVSPPYSSDPESSDYGHVQSPPPSSPHQMYTDLSRSPEMDQEPIVSHPKPGKVHSNTFQDRLGVSHLGEHQGKGAVSQNKPHKSSHKEKRPVDARGDEKSSVMGREKSHKASSKEESRRLLSEDSAKEKLPSSVVKKEKDREGNSLKKKLSPALDVASDNHFKKPKHKDSEKIKSDKNKQSVDSVDSGRGTGDPLPRAKDKVPNNLKAQEGKVRTNSDRKSPGSLPKVEEMDMDDEFEQPTMSFESYLSYDQPRKKKKKVVKTSGTALGEKGLKKKDSKSTSKNLNSAQKLPKANENKSDKLQPAGAEPTRPRKVPTDVLPALPDIPLPAIQTNYRPLPSLELISSFQPKRKAFSSPQEEEEAGFTGRRMNSKMQVYSGSKCAYLPKMMTLHQQCIRVLKNNIDSIFEVGGVPYSVLEPVLERCTPDQLYRIEECNHVLIEETDQLWKVHCHRDFKEERPEEYESWREMYL
B6: Elongin A deletion mutant 1-680 (other)
chain: MAAESALQVVEKLQARLAANPDPKKLLKYLKKLSVLPITVDILVETGVGKTVNSFRKHEQVGNFARDLVAQWKKLVPVERNNEAEDQDFEKSNSRKRPRDVPQQEEEAEGNYQESWQASGSQPYSPEHRQKKHRKLPELERPHKVAHGHERRDERKRCHKVSPPYSSDPESSDYGHVQSPPPSSPHQMYTDLSRSPEMDQEPIVSHPKPGKVHSNTFQDRLGVSHLGEHQGKGAVSQNKPHKSSHKEKRPVDARGDEKSSVMGREKSHKASSKEESRRLLSEDSAKEKLPSSVVKKEKDREGNSLKKKLSPALDVASDNHFKKPKHKDSEKIKSDKNKQSVDSVDSGRGTGDPLPRAKDKVPNNLKAQEGKVRTNSDRKSPGSLPKVEEMDMDDEFEQPTMSFESYLSYDQPRKKKKKVVKTSGTALGEKGLKKKDSKSTSKNLNSAQKLPKANENKSDKLQPAGAEPTRPRKVPTDVLPALPDIPLPAIQTNYRPLPSLELISSFQPKRKAFSSPQEEEEAGFTGRRMNSKMQVYSGSKCAYLPKMMTLHQQCIRVLKNNIDSIFEVGGVPYSVLEPVLERCTPDQLYRIEECNHVLIEETDQLWKVHCHRDFKEERPEEYESWREMYLRLQDAREQRLRLLTNNIRSAHANKPKGRQAKMAFVNSVAKPPRDVRRRQE
B7: Elongin A point mutant T549I (other)
chain: MAAESALQVVEKLQARLAANPDPKKLLKYLKKLSVLPITVDILVETGVGKTVNSFRKHEQVGNFARDLVAQWKKLVPVERNNEAEDQDFEKSNSRKRPRDVPQQEEEAEGNYQESWQASGSQPYSPEHRQKKHRKLPELERPHKVAHGHERRDERKRCHKVSPPYSSDPESSDYGHVQSPPPSSPHQMYTDLSRSPEMDQEPIVSHPKPGKVHSNTFQDRLGVSHLGEHQGKGAVSQNKPHKSSHKEKRPVDARGDEKSSVMGREKSHKASSKEESRRLLSEDSAKEKLPSSVVKKEKDREGNSLKKKLSPALDVASDNHFKKPKHKDSEKIKSDKNKQSVDSVDSGRGTGDPLPRAKDKVPNNLKAQEGKVRTNSDRKSPGSLPKVEEMDMDDEFEQPTMSFESYLSYDQPRKKKKKVVKTSGTALGEKGLKKKDSKSTSKNLNSAQKLPKANENKSDKLQPAGAEPTRPRKVPTDVLPALPDIPLPAIQTNYRPLPSLELISSFQPKRKAFSSPQEEEEAGFTGRRMNSKMQVYSGSKCAYLPKMMILHQQCIRVLKNNIDSIFEVGGVPYSVLEPVLERCTPDQLYRIEECNHVLIEETDQLWKVHCHRDFKEERPEEYESWREMYLRLQDAREQRLRLLTNNIRSAHANKPKGRQAKMAFVNSVAKPPRDVRRRQEKFGTGGAAVPEKVRIKPAPYTTGSSHVPASNSSSSFHSSPEELAYEGPSTSSAHLAPVASSSVSYDPRKPAVKKIAPMMAKTIKAFKNRFSRR
B8: Elongin A point mutant C554F (other)
chain: B7 chain with I549T, C554F
B9: Elongin A point mutant V557E (other)
chain: B7 chain with I549T, V557E
B10: Elongin A deletion mutant 400-773 (other)
chain: TMSFESYLSYDQPRKKKKKVVKTSGTALGEKGLKKKDSKSTSKNLNSAQKLPKANENKSDKLQPAGAEPTRPRKVPTDVLPALPDIPLPAIQTNYRPLPSLELISSFQPKRKAFSSPQEEEEAGFTGRRMNSKMQVYSGSKCAYLPKMMTLHQQCIRVLKNNIDSIFEVGGVPYSVLEPVLERCTPDQLYRIEECNHVLIEETDQLWKVHCHRDFKEERPEEYESWREMYLRLQDAREQRLRLLTNNIRSAHANKPKGRQAKMAFVNSVAKPPRDVRRRQEKFGTGGAAVPEKVRIKPAPYTTGSSHVPASNSSSSFHSSPEELAYEGPSTSSAHLAPVASSSVSYDPRKPAVKKIAPMMAKTIKAFKNRFSRR

Target: T1, Elongin BC complex (wild type rat …)
Experiment: refolded with wild type Elongin B and C; TSK SP-NPR HPLC, SDS-PAGE, silver staining

| Binder | binding result |
| --- | --- |
| B1 | binds |
| B2 | binds |
| B3 | binds |
| B4 | binds |
| B5 | binds |
| B6 | binds |
| B7 | binds |
| B8 | binds |
| B9 | binds |
| B10 | binds |
